# Experiments:
# [1] = tested on: 19-mer (SEQ ID NO:11) cleavage domain peptide
# [2] = tested on: 10-mer (SEQ ID NO:13) cleavage domain peptide
# [3] = tested on: 9-mer (SEQ ID NO:12) cleavage domain peptide
# Active MMP-9 enzyme, sequence (chain, as listed by the source): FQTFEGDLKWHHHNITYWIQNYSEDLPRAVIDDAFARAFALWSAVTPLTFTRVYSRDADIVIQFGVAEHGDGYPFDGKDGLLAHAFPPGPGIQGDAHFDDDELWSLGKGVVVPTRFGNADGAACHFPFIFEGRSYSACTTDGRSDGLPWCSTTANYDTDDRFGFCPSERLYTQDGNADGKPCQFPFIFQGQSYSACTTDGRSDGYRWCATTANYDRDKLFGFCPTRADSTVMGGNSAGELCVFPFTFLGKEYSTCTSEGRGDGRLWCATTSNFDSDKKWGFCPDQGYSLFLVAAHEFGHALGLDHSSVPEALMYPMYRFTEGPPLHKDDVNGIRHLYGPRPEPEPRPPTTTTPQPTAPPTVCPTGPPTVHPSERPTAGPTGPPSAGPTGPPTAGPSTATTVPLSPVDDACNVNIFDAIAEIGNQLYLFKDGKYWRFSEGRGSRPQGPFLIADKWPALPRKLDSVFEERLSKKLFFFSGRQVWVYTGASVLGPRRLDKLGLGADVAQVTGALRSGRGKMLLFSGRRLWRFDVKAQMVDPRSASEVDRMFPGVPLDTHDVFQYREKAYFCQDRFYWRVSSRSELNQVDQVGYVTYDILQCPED
substance,measurement,setting,value
Active MMP-9 enzyme,extended time course of MMP-9 catalyzed hydrolysis of collagen,[1],the 19-mer (SEQ ID NO:11) effectively inhibits the MMP-9 catalyzed hydrolysis of collagen to beyond 1000 minutes
same,extended time course of MMP-9 catalyzed hydrolysis of collagen,[2],The 10-mer (SEQ ID NO:13) peptide is less effective at preventing the destruction of collagen at long time points (FIG. 9) than is the 9-mer (SEQ ID NO:12) peptide (FIG. 10)
same,extended time course of MMP-9 catalyzed hydrolysis of collagen,[3],The 10-mer (SEQ ID NO:13) peptide is less effective at preventing the destruction of collagen at long time points (FIG. 9) than is the 9-mer (SEQ ID NO:12) peptide (FIG. 10)
